Measurements from publication PMC4118823, “Structural and biophysical analysis of interactions between cod and human uracil-DNA N-glycosylase (UNG) and UNG inhibitor (Ugi)” (Acta Crystallographica Section D: Biological Crystallography, 2014).

Experiments:
[1] = target: T1, Uracil-DNA N-glycosylase from Atlantic cod (Atlantic cod, UniProt Q9I983 82-301); test: ITC; Ugi (267-667 µM, syringe) injected into UNG (20-50 µM, cell); 25°C; 20 mM sodium phosphate pH 7.5, 200 mM sodium chloride; single-site binding model; conditions: both partners purified
T1 construct: Catalytic domain of uracil-DNA N-glycosylase (UNG) from Atlantic cod; Lanes et al., 2002). numbers count on: hUNG numbering; also called cUNG; cod UNG; source: recombinantly produced in E. coli; expression and purification as described previously (Assefa et al., 2012)

[2] = target: T2, human uracil-DNA N-glycosylase (human, UniProt P13051-2 1-304); test: as above; conditions: both partners purified
T2 construct: Human uracil-DNA N-glycosylase (UNG), recombinant; also called hUNG; human UNG; source: expression and purification as described previously (Assefa et al., 2012)
T2 sequence (P13051 94-313): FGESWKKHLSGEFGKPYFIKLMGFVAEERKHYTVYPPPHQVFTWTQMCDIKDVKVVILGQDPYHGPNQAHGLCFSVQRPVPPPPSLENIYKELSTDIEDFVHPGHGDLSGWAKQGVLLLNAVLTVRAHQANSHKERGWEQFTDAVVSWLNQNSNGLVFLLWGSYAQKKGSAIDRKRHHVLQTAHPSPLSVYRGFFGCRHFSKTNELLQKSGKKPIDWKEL

T1 sequence (Q9I983 entry or part of it): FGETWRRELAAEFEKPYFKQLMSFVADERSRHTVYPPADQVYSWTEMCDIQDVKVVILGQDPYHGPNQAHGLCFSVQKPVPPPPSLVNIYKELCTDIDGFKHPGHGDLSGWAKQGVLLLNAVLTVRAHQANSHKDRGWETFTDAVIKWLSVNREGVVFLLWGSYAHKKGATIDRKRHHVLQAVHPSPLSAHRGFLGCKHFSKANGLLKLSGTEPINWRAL

B1: uracil-DNA N-glycosylase inhibitor (Ugi) (natural protein)
chain: MTNLSDIIEKETGKQLVIQESILMLPEEVEEVIGNKPESDILVHTAYDESTDENVMLLTSDAPEYKPWALVIQDSNGENKIKML
notes: expressed from a recombinant pRSETb plasmid provided by T. Géoui; source: E. coli BL21 (DE3) pLysS, purified (heating to 95°C, Q-Sepharose, Superdex 75)
For B1, the Ka [1] was 3.25e+07 M⁻¹, the Kd [1] was 31 nM and the dH [1] was -6 kcal/mol. The “stoichiometry N” value [1] was 0.994, the Ka [2] was 1.5e+06 M⁻¹ and the Kd [2] was 685 nM. For the same binder, the dH [2] was -2.25 kcal/mol and the “stoichiometry N” value [2] was 0.921.
